Test results: the nanobody polyreactivity screen of Harvey et al. (2022)

Experiment: yeast display, Sf9 membrane polyspecificity reagent, FACS + sequencing; frameworks hold sequencing errors
In short: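 Galactose induction of a Saccharomyces cerevisiae BJ5465 synthetic nanobody display library ran 36–48 hours. The cells were then stained for 1 hour at 4 °C with 10% biotinylated, detergent-solubilized Sf9 membrane reagent, pulled down on streptavidin microbeads and FACS-sorted into low and high (top ~1%) gates on expression and reagent-binding fluorescence. Labels for polyreactivity follow the gate of origin.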

Sequence	polyreactivity (PSR sort gate)
QVQLVESGGGLVQAGGSLRLSCAASGFTFTAYDMGWYRQAPGKERELVAAISGSGGTTYYADSVKGRFTISRDNAKNTVYLQMNSLKPEDTAVYYCAVDVPSPGGYDSWGQGTQVTVSS	low polyreactivity
QVQLVESGGGLVQAGGSLRLSCAASGFTLEYYAMGWYRQAPGKERELVAAITNGASTNYADSVKGRFTISRDNAKNTVYLQMNSLKPEDTAVYYDYWGQGTQVTVSS	low polyreactivity
QVQLVESGGRLVQAGGSLRLRCAASGRTFVTNAMGWYRQAPGQERELVAAISGSGGSTYYADSVKGRFTISRDNAKNTFYLQMNSLKPEDTAVYDCATSYSLGYVRYGYWGQGSQVTVSS	high polyreactivity
QVQLVESGGGLVQAGGSLRLSCAASGRTFYYYAMGWYRQAPGKERELVAAINSGGTTSYADSVKGRFTISRDNAKNTVYFQMNSLKPEDTAVYYCAASDYGFPEYLTAYFYWGQGTLVTVSS	low polyreactivity
QVQLVESGGGLVQAGGSLRISCAASGRTFGPNAMGWYIKAPGKERELVAAIRYSGGSTYYADSVKGRFTISRDKAKNTVYLQMNSLKPEDTAVYYCAADYVSYVGERGTLYVRYDYWGQGTQVTVSS	high polyreactivity
QVQLVESGGGLVQAGGSLRLSCAASGSIFDGYAMGWYRQAPGKERELVAAISSSGVTTYYADSVKGRFTISRDNAKNTVYLQMNSLKPEDTAVYYCATYSYTWLNYYWGQGTQVTVSS	high polyreactivity
QVQLVESGGGLVQAGGSLRLSCAASGSTFVGYFMGWYRQAPGKERELVAAITKIGGSTYYADSVKGSFTISRDNAKNNVYLQMNSLKPEDTAVYYCARTRSRWRYPIFYYWGQGTQVTVSS	high polyreactivity
QVQLVESVGGLVQAGGSLRLSCAASGITIADNAMGWYRQAPRKERELVAAITSGGSTYYADAVKGRFTISRDNAKNTVYFQLNSLKPEDTGVYYCIVRVRRLFYWARLVAYDYWGQGSQVTVSS	high polyreactivity
QVQLVESGGGLVQAGRSLRLSCAASGSIFRYYAMGWYRQAPGKERELVAAISSSGGSTYYADSVKGRFTISRDNAKNTVYLQMNSLKPEDTAVYYCAAVWLSGYGDNYWGQGTQVTVSS	high polyreactivity
QVQLQESGGGLVQAGGSLLSCAASGPISYYREMGWYRQAPGKERELVAGFGVGTITYYADSVKGRFTISRDNAKNTVYLQMNSLKPEVTAVYYCAAHIDGNDSHAYWGQGTQVTVIS	low polyreactivity
QVQLVESGGGLVQAGGSLRLSCAASGSTFYGYGMGWYRQAPGKERELVAAITGSGDTTYYADSVKGRFTISRDNAKNTVYLQMNSLKPEDTAVYYCAADLTVRYDYWGQGTQVTVSS	low polyreactivity
QVQLVESGGGLVQAGGSLRLSCAASGSTFRFYAMGWYRQAPGKERELVAAITWRGGRTYYADSVKGRFTISRDNAKNTVYLQMNRLKPEDTAVYYCAGGRGWQSQIPAKYYYWGQGTQVTVSS	high polyreactivity
QVQLVESGGGLVQAGGSLRLSCAASGSIFRVYAMGWYRQAPGKERELVAAITNGGNTNYADSVKGRFTISRDNAKNTVYLQMNSLKPEDTAVYYCAADPLRTPGARHTPYKGTYDYWGQGTQVTVSS	high polyreactivity
QVQLVESGGGLVQAGGSLRLSCAASGSIFTVYAMGWYRQAPGKERELVATITGSDGRTDYADSVKGRFTISRDNAKNTVYLQMNSLKPEDTAVYYCAAQVFKWKYRQSLWFDQGYYWGQGTQVTVSS	low polyreactivity
QVQLVESGGGLVQAGGSLRLSCAASGFTFWTYAMGWYRQAPGKERELVAAISTSGGSTYYADSVKGRFTISRDNAKNTVYLQINSLKPEDTAVYYCAAYAIGEHFRARYGYWGQGTQVTVSS	high polyreactivity
QGQLVESGGGLGQAGGSLRLSCAASGSTFGDSAMVWYRQAPGKERELVAGISARGGRTYYADSVKGRFTISRDNAKNTVYLQMNSLKPEDTAVYDCNARTGYQDGSYGNDYWGQGTQVTVSS	high polyreactivity

Sequence	polyreactivity (PSR sort gate)
QVQLVESGGGLVEEGGSLRLSCAASGSIFSANALGWYRQAPGKERELVACITGDGSTNYADSVKGRFTISRDNAKNTVYLQMNSLKPEDTAVYYCAADIGSWYDYWGQGTQVTVSS	low polyreactivity
QVQLVESGGGLVQAGGSLRLSCAASGSILIPNAMGWYRQAPGKERELVASISKSGGSTYYADSVKGRFTISRDNAKNTVYLPKNSLKPEDTAVYYCAAAFVSVRKRYGYWGQGTQVTVSS	high polyreactivity
QVQLVESGGGLVQAGGSLRLSCAASGRISYGYVMGWYRQAPGKERELVAAISRTGGNTYYADSVKGRFTISRDNAKNTVYLQMNSLKPEDTAVYYCAKVYKTGITQYDYWGQGTQVTVSS	high polyreactivity
QVQLVESGGGLVQAGGSLRLSCPASGRTYASYAMGWYRQAPGKDRELVAAITSSGGSTYYADSVKGRFTISRDNAKNTVYLQMNSLKPEYTAVYYCAARSRYRGDSWGQGTQVTVSS	high polyreactivity
QVQLVESGGGLVQAGGSLRLSCAASGITFQRYAMGWYRQAPGKERELVAAITRGGSTNYADSVKGRFTISRDNAKNTVYLQMNSLKPEDTAVYYCAAGARYGYGYWGQGTQVTVSS	high polyreactivity
QVQLVESGGGLVQAGGSLRLSCAASGGILDTYAMGWYRQAPGKERELVAAITSGGNTNYADSVKGRFTISRDNAKNTVYLQMNSLKPEDTAVYYCNVVTWYYVFRPWEYDYWGQGTQVTVSS	low polyreactivity
QVQLVESGGVLVQAGGSLRLSCAASGSIFANNAMGWYRQAPGKERELVATIRSGGTTNYADSVKGRFTISRDNAKNTVYLQMNSLKPEDTAVYYCAVDYVVYADGPLDYWGQGTQVTVSS	low polyreactivity
QVQLVESGGGLVQAGGSLRLSCAASGYISYVNPMGWYRQAPGKERELVAAISGRGGSTYYADSVKGRFTISRDNAKNTVYLQMYSLKPEDTAVYYCAADLYYSYYWGQGTQVTVSS	low polyreactivity
QVQLVESGGGLVQAGGSLRLSCAASGRTFWKNTMGWYRQAPGKERELVAVISSGGVSTSYADSVKGRFTISRDNAKNTVYLQMNSLKPEDTAVYYCAADGYYIGPYDYWGQGTQVTVSS	low polyreactivity
QVQLVESGGGLVQAGGSLRLSCAASGRIFGFYAMGLYRQAPGKERELVARITLSGGRTYYADSVKGRFTISRDNAKNTVYLQMNSLKPEDTAVYYCAADSIGRLWGYGYWGQGTQVTVSS	high polyreactivity
QVQLVESCGGLVQAGGSLRLSCAATGRIFAGYVMGWYRPAHGKERELVAAISWRGGRTYYADSVKGRFTISRDNAKNTVYLQMISLKPEDTAVYYCNAPYAVGNPADDYWGQGTQVTVSS	high polyreactivity
QVQLVESGGGLVQAGGSLRLSCAASGSTFRGYVMGWYRQAPGKERELVAVISYNGGSTYYADSVKGRFTISRDNAKNTVYLQMNSLKPEDTAVYYCAATYFFLYTSWDEYWGQGTQVTVSS	low polyreactivity
QVQLVESGGGLVQAGGSLRLSCAASGSIFYNNAMGWYRQAPGKERELVATISDGGGSTYYADSVKGRFTISRDNAKNTVYLQMNSLKPEDTAVYYCAAPYYWGQGTQVTVSS	low polyreactivity
QDQLVESGGGLVQAGGSLRISCAASGSIFAWYAMAWYRESPGKERELVATITWSGGSTYYADSVKGRFTISRDNAKNTVYLQMNSLKPEDTAVYYCAAEVVGIWYDLWYQGDYWGQGTQVTVSS	low polyreactivity
QVQLVESGGGLVQAGGSLRLSCAASGIIFVSYAMGWYRQAPGKERELVADITSGGRTYYADSVKGRFTISRDNAKNTVYLQMNSLKPEDTAGYYCAATYSYKGRWVWVYYWGQGTQVTVSS	high polyreactivity
QVQLVESGGGLVQAGGSLRLSCAASGRIFRSNAMGWYRQSPGKESELVAAITWRGRTYYADSVKGRFTISRDNAKNTVYLQMNSLKPEDTAVYYCNAYVRYGYDYWGHGTQVTVSS	high polyreactivity
